Data as given in the supplement of paper PMC10567573.

B1: FAM164A (parent)
chain: YDPDYIQCPYCQRRFNENAADRHI

Variants of: B1
Assay: protein stability index of a GFP-peptide fusion (GPS, HEK-293T) (PSI 1-6); higher = more stable
Settings: c terminus: a fixed tail appended
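Further: lentivirally expressed fusions sorted by FACS into six bins by GFP to DsRed ratio, PSI derived from sequencing read proportions per bin multiplied by bin number.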

| Variant | protein stability index |
| --- | --- |
| YDPDYTQCPYCQRRFNENAADRHI | 3.56 |
| YDPDYAQCPYCQRRFNENAADRHI | 3.58 |
| YDPDYLQCPYCQRRFNENAADRHI | 3.27 |
| YDPDYSQCPYCQRRFNENAADRHI | 3.44 |
| YDPDYGQCPYCQRRFNENAADRHI | 3.29 |
| YDPDYWQCPYCQRRFNENAADRHI | 2.8 |
| YDPDYYQCPYCQRRFNENAADRHI | 3.23 |
| YDPDYPQCPYCQRRFNENAADRHI | 3.37 |
| YDPDYFQCPYCQRRFNENAADRHI | 3.29 |
| YDPDYKQCPYCQRRFNENAADRHI | 3.71 |
| YDPDYEQCPYCQRRFNENAADRHI | 3.5 |
| YDPDYCQCPYCQRRFNENAADRHI | 3.7 |
| YDPDYNQCPYCQRRFNENAADRHI | 3.55 |
| YDPDYDQCPYCQRRFNENAADRHI | 3.6 |
| YDPDYQQCPYCQRRFNENAADRHI | 4.03 |
| YDPDYRQCPYCQRRFNENAADRHI | 3.63 |
| YDPDYMQCPYCQRRFNENAADRHI | 3.42 |
| YDPDYIQDPYCQRRFNENAADRHI | 4.24 |
| YDPDYIQFPYCQRRFNENAADRHI | 3.17 |
| YDPDYIQLPYCQRRFNENAADRHI | 3.56 |
| YDPDYIQNPYCQRRFNENAADRHI | 3.65 |
| YDPDYIQIPYCQRRFNENAADRHI | 3.13 |
| YDPDYIQKPYCQRRFNENAADRHI | 3.54 |
| YDPDYIQAPYCQRRFNENAADRHI | 3.88 |

| Variant | protein stability index |
| --- | --- |
| YDPDYIQHPYCQRRFNENAADRHI | 3.46 |
| YDPDYIQEPYCQRRFNENAADRHI | 4.37 |
| YDPDYIQGPYCQRRFNENAADRHI | 3.81 |
| YDPDYIQMPYCQRRFNENAADRHI | 3.63 |
| DDPDYIQCPYCQRRFNENAADRHI | 4.86 |
| FDPDYIQCPYCQRRFNENAADRHI | 3.42 |
| VDPDYIQCPYCQRRFNENAADRHI | 4.4 |
| CDPDYIQCPYCQRRFNENAADRHI | 3.69 |
| MDPDYIQCPYCQRRFNENAADRHI | 4.24 |
| SDPDYIQCPYCQRRFNENAADRHI | 4.54 |
| GDPDYIQCPYCQRRFNENAADRHI | 4.17 |
| NDPDYIQCPYCQRRFNENAADRHI | 4.45 |
| LDPDYIQCPYCQRRFNENAADRHI | 4.6 |
| ADPDYIQCPYCQRRFNENAADRHI | 4.73 |
| TDPDYIQCPYCQRRFNENAADRHI | 4.79 |
| KDPDYIQCPYCQRRFNENAADRHI | 4.41 |
| IDPDYIQCPYCQRRFNENAADRHI | 4.72 |
| QDPDYIQCPYCQRRFNENAADRHI | 4.55 |
| EDPDYIQCPYCQRRFNENAADRHI | 5.12 |
| HDPDYIQCPYCQRRFNENAADRHI | 4.29 |
| PDPDYIQCPYCQRRFNENAADRHI | 4.54 |
| RDPDYIQCPYCQRRFNENAADRHI | 3.98 |
| WDPDYIQCPYCQRRFNENAADRHI | 4.69 |
